Measured values published in PMC4167697.
Values joined by “and” are separate entries in the source; they are usually repeats but may differ in a detail not shown here. Equal values may be shown once.

How the values were obtained:
protein G B1 [1] = test: BLI; kinetic titration series; GB1 amine-coupled on AR2G sensors, IgG as analyte at 0.03125-0.5 µM in turn on one sensor; PBS with 0.05% Polysorbat 20, 25°C, 1000 rpm; each sensor pair fitted separately, 1:1 kinetic titration series model with RI-term
protein G B1 [2] = test: as above; remark: listed apart in the source
protein G B1 [3] = test: BLI; parallel sensor kinetics, fitted without RI term (Figure S3A); GB1 on AR2G sensors, IgG as analyte
protein G B1 [4] = test: BLI; kinetic titration series, fitted without RI term (Figure S3B); GB1 on AR2G sensors, IgG as analyte
protein G B1 [5] = test: BLI; kinetic titration series; GB1 amine-coupled on AR2G sensors, IgG as analyte at 0.03125-0.5 µM in turn on one sensor; PBS with 0.05% Polysorbat 20, 25°C, 1000 rpm; each sensor pair fitted separately, 1:1 kinetic titration series model with RI-term; remark: listed apart in the source
protein G B1 [6] = test: as above; remark: listed apart in the source
protein G B1 [7] = test: BLI; parallel sensor kinetics; GB1 amine-coupled on AR2G sensors, IgG as analyte at 0.03125-0.5 µM on five sensors in parallel; PBS with 0.05% Polysorbat 20, 25°C, 1000 rpm; global 1:1 fit with RI-term
protein G B1 [8] = test: BLI; kinetic titration series; GB1 amine-coupled on AR2G sensors, IgG as analyte at 0.03125-0.5 µM in turn on one sensor; PBS with 0.05% Polysorbat 20, 25°C, 1000 rpm; each sensor pair fitted separately, 1:1 kinetic titration series model with RI-term; remark: listed apart in the source
protein G B1 [9] = test: as above; remark: listed apart in the source
protein G B1 [10] = test: as above; remark: listed apart in the source
protein G B1 [11] = test: BLI; parallel sensor kinetics; GB1 amine-coupled on AR2G sensors, IgG as analyte at 0.03125-0.5 µM, one sensor for each concentration; PBS with 0.05% Polysorbat 20, 25°C, 1000 rpm; global 1:1 binding model with RI-term; two measurements (#1, #2)
protein G B1 [12] = test: BLI; kinetic titration series; GB1 amine-coupled on AR2G sensors, IgG as analyte at 0.03125-0.5 µM in sequence on one sensor; PBS with 0.05% Polysorbat 20, 25°C, 1000 rpm; 1:1 kinetic titration series model with RI-term; mean of 7 replicates

rabbit IgG (ID: ABIN376828; Antibodies-Online) (antibody)
Kd (protein G B1 [1]): 166 nM | koff (protein G B1 [1]): 0.00476 s⁻¹ | kon (protein G B1 [1]): 28700 M⁻¹ s⁻¹ | Kd (protein G B1 [2]): 87.7 nM | koff (protein G B1 [2]): 0.00601 s⁻¹ | kon (protein G B1 [2]): 68500 M⁻¹ s⁻¹ | Kd (protein G B1 [3]): 186 nM | koff (protein G B1 [3]): 0.00317 s⁻¹ | kon (protein G B1 [3]): 17000 M⁻¹ s⁻¹ | Kd (protein G B1 [4]): 107 nM | koff (protein G B1 [4]): 0.00185 s⁻¹ | kon (protein G B1 [4]): 17300 M⁻¹ s⁻¹ | Kd (protein G B1 [5]): 124 nM | koff (protein G B1 [5]): 0.00551 s⁻¹ | kon (protein G B1 [5]): 44300 M⁻¹ s⁻¹ | Kd (protein G B1 [6]): 164 nM | koff (protein G B1 [6]): 0.00485 s⁻¹ | kon (protein G B1 [6]): 29700 M⁻¹ s⁻¹ | koff (protein G B1 [7]): 0.00702 s⁻¹ | kon (protein G B1 [7]): 45100 M⁻¹ s⁻¹ | Kd (protein G B1 [8]): 266 nM | koff (protein G B1 [8]): 0.00606 s⁻¹ | kon (protein G B1 [8]): 22800 M⁻¹ s⁻¹ | Kd (protein G B1 [9]): 50.4 nM | koff (protein G B1 [9]): 0.0016 s⁻¹ | kon (protein G B1 [9]): 31800 M⁻¹ s⁻¹ | Kd (protein G B1 [10]): 254 nM | koff (protein G B1 [10]): 0.00467 s⁻¹ | kon (protein G B1 [10]): 18400 M⁻¹ s⁻¹

rabbit immunoglobulin G (antibody)
Kd (protein G B1 [11]): 156 nM and 253 nM | Kd (protein G B1 [12]): 159 nM
